Laboratory results taken from doi:10.1101/2021.05.06.442885.

Target: human Xkr8 (hXkr8), from hXkr8-TH-mGFP after TEV cleavage (human) (UniProt Q9H6D3)
Test: cryo-EM structure

Chain of UniProt Q9H6D3 (Q9H6D3 whole entry): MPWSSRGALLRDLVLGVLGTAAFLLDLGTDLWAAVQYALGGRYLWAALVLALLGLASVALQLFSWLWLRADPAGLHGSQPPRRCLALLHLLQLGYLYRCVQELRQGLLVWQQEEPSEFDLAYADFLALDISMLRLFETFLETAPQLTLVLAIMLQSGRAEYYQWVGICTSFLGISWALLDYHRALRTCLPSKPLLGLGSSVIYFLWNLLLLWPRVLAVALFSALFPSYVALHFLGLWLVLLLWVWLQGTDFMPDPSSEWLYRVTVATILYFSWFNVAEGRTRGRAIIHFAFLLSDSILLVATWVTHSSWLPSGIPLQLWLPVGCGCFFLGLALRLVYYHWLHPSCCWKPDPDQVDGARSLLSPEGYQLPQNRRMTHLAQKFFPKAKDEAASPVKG

## hBSGΔ (human basigin lacking Ig-like domain 1, N152Q/N186Q, C-terminal FLAG) (domain or fragment)
  stoichiometry N: 1
